Assay [1] concerns the target endogenous human asparagine synthetase (ASNS) in leukemia cells (human) (UniProt P08243). Briefly: flow cytometry with QIFIKIT calibration beads, K562 cells, control antibody at 3 ug/ml. In general terms: Flow cytometry measures light scatter and fluorescence of single cells or particles in a stream.
For assay [2] the target is unchanged. Briefly: flow cytometry with QIFIKIT calibration beads, MOLT-4 cells, control antibody at 3 ug/ml.
Assay [3] shares this target. The assay is described as follows: flow cytometry on fixed, permeabilised K562 cells (high ASNS), control antibody at 3 ug/ml.
Assay [4] shares this target. Briefly: flow cytometry on fixed, permeabilised MOLT-4 cells (extremely low ASNS), control antibody at 3 ug/ml.

UniProt P08243, sequence (P08243 2-561): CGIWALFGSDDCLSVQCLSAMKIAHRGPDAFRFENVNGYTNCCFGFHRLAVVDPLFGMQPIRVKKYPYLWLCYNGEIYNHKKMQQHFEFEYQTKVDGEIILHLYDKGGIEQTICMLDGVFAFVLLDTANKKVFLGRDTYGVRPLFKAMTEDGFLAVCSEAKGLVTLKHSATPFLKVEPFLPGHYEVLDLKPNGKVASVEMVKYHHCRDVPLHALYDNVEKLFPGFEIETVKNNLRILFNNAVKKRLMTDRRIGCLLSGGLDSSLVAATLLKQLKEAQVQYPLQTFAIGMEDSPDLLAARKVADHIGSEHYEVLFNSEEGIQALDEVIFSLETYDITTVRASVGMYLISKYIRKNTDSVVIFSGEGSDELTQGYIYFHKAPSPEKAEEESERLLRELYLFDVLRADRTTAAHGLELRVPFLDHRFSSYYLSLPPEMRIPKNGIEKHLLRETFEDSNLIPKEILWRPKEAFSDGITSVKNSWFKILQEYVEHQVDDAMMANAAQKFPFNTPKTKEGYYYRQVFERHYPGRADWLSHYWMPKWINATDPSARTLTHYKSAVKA

As for “control mouse IgG (3423, 2AHB12; Institute of Immunology) (antibody)”, the ABC (antibody binding capacity) was 874 units/cell in assay [1] and 631 units/cell in assay [2]. Besides, the MFI (arbitrary units) was 4.56 in assay [3] and 3.17 in assay [4].
